Test [1] addresses complement C3 (human).
In test [2] the target is complement C3 (human). The test can be described thus: SPR; ~2,000 RU C3 immobilised on a CM5 chip; rHC1 as analyte; HEPES-buffered saline pH 7.5, 0.05% Tween 20, 2 mM MnCl2.
The target of test [3] is complement C3 (human). The test can be described thus: SPR; ~2,000 RU C3 immobilised on a CM5 chip by amide coupling; rHC1 or IαI as analyte; HEPES-buffered saline pH 7.5, 0.05% Tween 20, 2 mM Mg2+, 2 mM Mn2+; multicycle kinetics, 1:1 Langmuir. (In SPR one partner is held on a chip, and binding of the other changes the refractive index at the surface.)

By Kd is commonly meant a measure of binding affinity in units of concentration. A high value points to a looser complex.

B1: recombinant inter-α-inhibitor heavy chain 1 (rHC1), wild type (natural protein)
chain: SKSSEKRQAVDTAVDGVFIRSLKVNCKVTSRFAHYVVTSQVVNTANEAREVAFDLEIPKTAFISDFAVTADGNAFIGDIKDKVTAWKQYRKAAISGENAGLVRASGRTMEQFTIHLTVNPQSKVTFQLTYEEVLKRNHMQYEIVIKVKPKQLVHHFEIDVDIFEPQGISKLDAQASFLPKELAAQTIKKSFSGKKGHVLFRPTVSQQQSCPTCSTSLLNGHFKVTYDVSRDKICDLLVANNHFAHFFAPQNLTNMNKNVVFVIDISGSMRGQKVKQTKEALLKILGDMQPGDYFDLVLFGTRVQSWKGSLVQASEANLQAAQDFVRGFSLDEATNLNGGLLRGIEILNQVQESLPELSNHASILIMLTDGDPTEGVTDRSQILKNVRNAIRGRFPLYNLGFGHNVDFNFLEVMSMENNGRAQRIYEDHDATQQLQGFYSQVAKPLLVDVDLQYPQDAVLALTQNHHKQYYEGSEIVVAGRIADNKQSSFKADVQAHGEGQEFSITCLVDEEEMKKLLRERGHMLENHVERLWAYLTIQELLAKRMKVDREERANLSSQALQMSLDYGFVTPLTSMSIRGMADQDGLKPTIDKPSEDSPPLEMLGPRRTFVLSALQPSPTHSSSNTQRLPDRVTGVDTD
B1 yielded a fluid phase alternative pathway C3 convertase (C3bBb) assay, proteolytic release of C3a quantified by SDS-PAGE; rHC1 at 0 to 27 μM in the test with complement C3 (human) [1] of 980 nM. The values for the Kd with complement C3 (human) [2] and in the test with complement C3 (human) [3] were 473 nM and 364 nM, respectively.

These data come from PMC7170535.
